Measurements from PMC8153946, “Substrate Selectivity of Coumarin Derivatives by Human CYP1 Enzymes: In Vitro Enzyme Kinetics and In Silico Modeling” (ACS Omega, 2021).
Marks after values point to notes of the source that are not given here.

Assays:
Assay in all cases: Michaelis–Menten kinetics of oxidation to fluorescent 7-hydroxy metabolite by recombinant CYP1A1
Type in all cases: biochemical, human
Settings in all cases: other: recombinant CYP1A1, 100 mM Tris-HCl pH 7.4, 37 °C, 95% confidence interval in brackets
[1] = substrate: CC(=O)Oc1ccc(-c2cc3cc(Cl)ccc3oc2=O)cc1
Method: (§1) Baculovirus-insect cell-expressed human CYP1A1, CYP1A2, CYP1B1, CYP2A6, CYP2B6, CYP2C8, CYP2C9, CYP2C19, CYP2D6, CYP2E1, CYP3A4, CYP3A5, and CYP3A7 were purchased from BD Biosciences Discovery Labware (Woburn, MA, USA) and used according to the manufacturer’s instructions.
(§2) The kinetic assays were carried out in 100 μL volume containing 100 mM Tris-HCl buffer pH 7.4, 0–40 μM coumarin derivative or 0–10 μM 7-ethoxyresorufin, 1–25 nM recombinant CYP or 0–0.1 g/L microsomal protein, and 20% NADPH regenerating system. Incubations took place at 37 °C in 96-multiwell plates; the fluorescence was measured with a Victor[2] plate reader (PerkinElmer Life Sciences, Turku, Finland). The detailed conditions are described in the figures and tables. The reaction was started by adding NADPH, and fluorescence was measured at 2 min intervals for 40 min using excitation at 405 nm and emission at 460 nm for oxidation of coumarin derivatives[18] and excitation at 570 nm and emission at 615 nm for ethoxyresorufin or pentoxyresorufin 7-O-dealkylations. Incubations without the substrate, enzyme, or NADPH were used as blank reactions. Resorufin was used as a standard, and 3-(4-fluorophenyl)-7-hydroxycoumarin was used as the surrogate standards to calculate the amount of product formed. The linear phase of the reactions was used for calculations.
(§3) Enzyme kinetic parameters were analyzed using the nonlinear Michaelis–Menten equation v = Vmax × S/(Km + S), in which v is the rate for 7-hydroxylation of a coumarin derivative, S is its concentration, and Vmax value is the limiting rate of the reaction of 7-hydroxylation, which reached a half-maximal rate at a concentration of Km for the substrate.

[2] = substrate: CCCCCOc1ccc2nc3ccc(=O)cc-3oc2c1
Method: as §1, §2, §3

[3] = substrate: CCOc1ccc2ccc(=O)oc2c1
Method: as §1, §2, §3

[4] = substrate: CCOc1ccc2nc3ccc(=O)cc-3oc2c1
Method: as §1, §2, §3

[5] = substrate: COc1ccc(-c2cc3cc(OC(C)=O)ccc3oc2=O)cc1
Method: as §1, §2, §3

[6] = substrate: COc1ccc2cc(-c3ccc(OC(F)(F)F)cc3)c(=O)oc2c1
Method: as §1, §2, §3

[7] = substrate: COc1ccc2oc(=O)c(-c3ccc(O)c(F)c3)cc2c1
Method: as §1, §2, §3

[8] = substrate: COc1ccc2oc(=O)c(-c3ccc(OC(F)(F)F)cc3)cc2c1
Method: as §1, §2, §3

[9] = substrate: COc1cccc(-c2cc3cc(OC)ccc3oc2=O)c1
Method: as §1, §2, §3

[10] = substrate: O=c1oc2ccc(O)cc2cc1-c1cccc(O)c1
Method: as §1, §2, §3

B1: human CYP1A1 (Homo sapiens) (protein)
chain: MLFPISMSATEFLLASVIFCLVFWVIRASRPQVPKGLKNPPGPWGWPLIGHMLTLGKNPHLALSRMSQQYGDVLQIRIGSTPVVVLSGLDTIRQALVRQGDDFKGRPDLYTFTLISNGQSMSFSPDSGPVWAARRRLAQNGLKSFSIASDPASSTSCYLEEHVSKEAEVLISTLQELMAGPGHFNPYRYVVVSVTNVICAICFGRRYDHNHQELLSLVNLNNNFGEVVGSGNPADFIPILRYLPNPSLNAFKDLNEKFYSFMQKMVKEHYKTFEKGHIRDITDSLIEHCQEKQLDENANVQLSDEKIINIVLDLFGAGFDTVTTAISWSLMYLVMNPRVQRKIQEELDTVIGRSRRPRLSDRSHLPYMEAFILETFRHSSFVPFTIPHSTTRDTSLKGFYIPKGRCVFVNQWQINHDQKLWVNPSEFLPERFLTPDGAIDKVLSEKVIIFGMGKRKCIGETIARWEVFLFLAILLQRVEFSVPLGVKVDMTPIYGLTMKHACCEHFQMQLRS
notes: purchased BD Biosciences Discovery Labware (Woburn, MA, USA); host or cells: baculovirus-insect cells
**Q.** B1 was tested. Which Km [1] did it give?
**A.** 0.41 (0.26–0.55) μM

**Q.** And the kcat [1]?
**A.** 6.5 (5.9–7.1) mol/(min·mol CYP)

**Q.** What about the Km [2] of the same protein?
**A.** 0.74 (0.54–0.94) μM

**Q.** And the kcat [2]?
**A.** 1.35 (1.19–1.50) mol/(min·mol CYP)

**Q.** What about the Km [3] of the same protein?
**A.** 11.9 (0–25.1) μM

**Q.** What about the kcat [3] of the same protein?
**A.** 26.2 (14.5–38) mol/(min·mol CYP)

**Q.** What about the Km [4] of the same protein?
**A.** 0.054 (0.035–0.075) μM

**Q.** What about the kcat [4] of the same protein?
**A.** 10.3 (9.3–11.4) mol/(min·mol CYP)

**Q.** What about the Km [5] of the same protein?
**A.** 1.04 (0.65–1.42) μM

**Q.** And the kcat [5]?
**A.** 7.5 (7–8.1) mol/(min·mol CYP)

**Q.** What about the Km [6] of the same protein?
**A.** 9.7 (4.8–14.6) μM

**Q.** What about the kcat [6] of the same protein?
**A.** 4.2 (3.3–5.1) mol/(min·mol CYP)

**Q.** And the Km [7]?
**A.** 10.7 (2.6–18.7) ^b μM

**Q.** What about the kcat [7] of the same protein?
**A.** 32 (18–46) mol/(min·mol CYP)

**Q.** What about the Km [8] of the same protein?
**A.** 4.8 (2.6–6.9) μM

**Q.** And the kcat [8]?
**A.** 12.6 (10.6–14.6) mol/(min·mol CYP)

**Q.** What about the Km [9] of the same protein?
**A.** 0.96 (0.4–1.52) μM

**Q.** What about the kcat [9] of the same protein?
**A.** 24.2 (19.4–29) mol/(min·mol CYP)

**Q.** What about the Km [10] of the same protein?
**A.** 2.11 (0.17–4.1) μM

**Q.** And the kcat [10]?
**A.** 4.0 (3.0–5.0) mol/(min·mol CYP)
